Test results published in PMC10509167, “Identification and characterization of endo-α-, exo-α-, and exo-β-D-arabinofuranosidases degrading lipoarabinomannan and arabinogalactan of mycobacteria” (Nature Communications, 2023).

Legend:
[1] = substrate: O=[N+]([O-])c1ccc(O[C@H]2O[C@H](CO)[C@@H](O)[C@@H]2O)cc1; assay: purified protein; type: biochemical, Microbacterium arabinogalactanolyticum; details: 37 °C, 50 mM sodium acetate pH 5.5
[2] = substrate: O=[N+]([O-])c1ccc(O[C@@H]2O[C@H](CO)[C@@H](O)[C@@H]2O)cc1; assay: purified protein; type: biochemical, Microbacterium arabinogalactanolyticum; details: 37 °C, 50 mM sodium phosphate pH 6.0

Protein	Km [1] [µM]	kcat [1] [s⁻¹]	Km [2] [µM]	kcat [2] [s⁻¹]
ExoMA1 (MIAR_33200) (Microbacterium arabinogalactanolyticum) (protein, dodecamer) MPDLNSIAALRQVQTRSISPENFDGTAGGGGRATEGTGADCARDLGPGWKISPSVDIKAGETFELASIEGAGKITHIWITTHTDNWRTLILRAFWDGADEPAVEVPYGDFFCNGWGVFAQVNSQAIAANPHGGFNSYWPMPFRDGARLTIENTSVVDVRVYYQVTYEIGGDHSNDAYFHAQWRRSNPLEELTPHVILEGIEGEGHYVGTYIAWGVNSNGWWGEGEIKFYLDDDTDHPTICGTGTEDYFGGAWNFDIPGKGYTEFSTPYLGMPQVIRPDGLYVSQQRFGMYRWHLQDPIHFATGIPKVDIQALGWRSGWRYLPLRDDIASTAMFYLDRPTARRPKSPSADDMEVHLGTAPVPDLGATPPRV	2550	44.4		
ExoMA2 (MIAR_33170) (Microbacterium arabinogalactanolyticum) (protein, dimer) SRRARRIPHTAESVAFPLGGIGTGNVSLGARGELRDWEFENLPDKGRLNPRSFFAIHAAPQGGPSATRVLEARSSGRHDRDAGYGFDELAGLPRLDSAGLHGEYPVVDIDFTDATLPVTVSLHAFTPLVPLDADASGIPAAVLRYRVVNPGDAPVTVTVVGSMSHTAGRGAPGPDAPWGMRGTQSVRWRESDGIRGLDFDIDLDHDDPGYGTMSLTTTDSSTTVKPQWVTSYWPDGARLFWNDLADDGLLAPEARLTLEDKPRGLFAERDADPDAPALTEEQMLAKLPRVRTGSLGIVHTLAPGEERDFEFVLAWSFPNRRRGWHGHIIFDDALEDGAPDLRDELGPIVRNHYAVRWPDAWAAAAQLHRDLPALEGATDAFVEELYGGSLDPVLADAVGANIAALRSTTCFVLESPTPELGDGPVFAAWEGSFDHGGSCEGTCTHVWSYAQTAAWLFPGLERSARRAEYLLETDESGAQKFRGNRIFGAPRWFIGPAVDGQLGTFLRLHREWRFCGDDEFLRELWPAAARTLDYAAREWDHDGDGLLDGEMHNTYDIEFHGVEPLSNIIHLAALRAGVRMAGHLGDTARAQEWALRADHVAAAIEGVLWNGEYYRQVIDDVDAHRYQYGDGVLSDQLLGQFHAFLGGLGYLLPEAHVRSALDAIVQHNHRGDLRDHESTQRVYALNDEGGLLLASWPEGGRPALPFVYADEVWTGIEHQVAVSLLFAGRYDDALRIERTLRARYDGAHRSPWNEIECGNHYARSLASWGLLIGASGAQWDAGARTLSFDPVLPGDARFLFTTATGWGGVEIGDDVITLRLHGGALDLDELRLRGEVAGRGIHLDAGETRTLTLT			2730	12.0
